According to IntAct's records for PubMed 31515488:

B1: Protein LDOC1 (Homo sapiens), O95751 (parent)
chain: MVDELVLLLHALLMRHRALSIENSQLMEQLRLLVCERASLLRQVRPPSCPVPFPETFNGESSRLPEFIVQTASYMLVNENRFCNDAMKVAFLISLLTGEAEEWVVPYIEMDSPILGDYRAFLDEMKQCFGWDDDEDDDDEEEEDDY
partner: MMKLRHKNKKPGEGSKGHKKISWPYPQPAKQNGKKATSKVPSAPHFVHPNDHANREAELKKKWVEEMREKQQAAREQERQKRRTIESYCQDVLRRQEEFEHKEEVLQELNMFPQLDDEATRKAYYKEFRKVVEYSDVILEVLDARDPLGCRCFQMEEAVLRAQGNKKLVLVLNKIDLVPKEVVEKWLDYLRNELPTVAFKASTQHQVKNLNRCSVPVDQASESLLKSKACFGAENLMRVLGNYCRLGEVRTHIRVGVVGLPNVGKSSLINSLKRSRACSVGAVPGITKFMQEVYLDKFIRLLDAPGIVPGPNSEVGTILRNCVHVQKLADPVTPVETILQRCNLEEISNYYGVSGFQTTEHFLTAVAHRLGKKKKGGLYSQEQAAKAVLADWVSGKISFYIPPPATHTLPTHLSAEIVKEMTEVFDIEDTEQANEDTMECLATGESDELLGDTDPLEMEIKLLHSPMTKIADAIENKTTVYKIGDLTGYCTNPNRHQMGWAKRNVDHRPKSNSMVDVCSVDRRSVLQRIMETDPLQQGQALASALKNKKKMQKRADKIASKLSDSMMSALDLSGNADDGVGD
B2: Microtubule-associated tumor suppressor candidate 2 (Homo sapiens), Q5JR59-3 (parent)
chain: MGHCCCKPYNCLQCLDKTNESALVKEKELSIELANIRDEVAFHTAKCEKLQKEKEELERRFEDEVKRLGWQQQAELQELEERLQLQFEAEMARLQEEHGDQLLSIRCQHQEQVEDLTASHDAALLEMENNHTVAITILQDDHDHKVQELMSTHELEKKELEENFEKLRLSLQDQVDTLTFQSQSLRDRARRFEEALRKNTEEQLEIALAPYQHLEEDMKSLKQVLEMKNQQIHEQEKKILELEKLAEKNIILEEKIQVLQQQNEDLKARIDQNTVVTRQLSEENANLQEYVEKETQEKKRLSRTNEELLWKLQTGDPTSPIKLSPTSPVYRGSSSGPSSPARVSTTPR
partner: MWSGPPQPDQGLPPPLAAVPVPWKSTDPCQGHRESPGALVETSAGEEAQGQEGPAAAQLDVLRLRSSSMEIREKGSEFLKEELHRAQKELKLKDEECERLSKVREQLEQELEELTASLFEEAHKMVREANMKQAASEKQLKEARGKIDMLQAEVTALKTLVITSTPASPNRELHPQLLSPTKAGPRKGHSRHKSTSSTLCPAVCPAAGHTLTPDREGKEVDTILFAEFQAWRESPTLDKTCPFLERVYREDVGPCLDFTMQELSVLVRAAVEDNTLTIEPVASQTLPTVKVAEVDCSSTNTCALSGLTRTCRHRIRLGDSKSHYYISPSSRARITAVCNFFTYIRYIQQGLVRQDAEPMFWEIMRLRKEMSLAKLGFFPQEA
B3: Protein LDOC1 (Homo sapiens), O95751 (parent)
chain: B1 chain
partner: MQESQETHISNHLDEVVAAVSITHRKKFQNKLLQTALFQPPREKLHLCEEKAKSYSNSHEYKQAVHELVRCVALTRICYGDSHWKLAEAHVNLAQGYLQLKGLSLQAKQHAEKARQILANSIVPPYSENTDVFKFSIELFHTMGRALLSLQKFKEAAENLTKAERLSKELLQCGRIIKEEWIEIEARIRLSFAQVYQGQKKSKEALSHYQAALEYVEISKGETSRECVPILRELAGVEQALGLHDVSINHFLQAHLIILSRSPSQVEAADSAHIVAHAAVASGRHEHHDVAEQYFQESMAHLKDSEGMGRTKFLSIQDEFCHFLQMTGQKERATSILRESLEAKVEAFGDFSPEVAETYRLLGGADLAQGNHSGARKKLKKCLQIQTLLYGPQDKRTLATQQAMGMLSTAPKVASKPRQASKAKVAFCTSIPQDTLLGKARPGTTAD
B4: G-patch domain and KOW motifs-containing protein (Homo sapiens), Q92917 (parent)
chain: MADSKEGVLPLTAASTAPISFGFTRTSARRRLADSGDGAGPSPEEKDFLKTVEGRELQSVKPQEAPKELVIPLIQNGHRRQPPARPPGPSTDTGALADGVVSQAVKELIAESKKSLEERENAGVDPTLAIPMIQKGCTPSGEGADSEPRAETVPEEANYEAVPVEAYGLAMLRGMGWKPGEGIGRTFNQVVKPRVNSLRPKGLGLGANLTEAQALTPTGPSRMPRPDEEQEKDKEDQPQGLVPGGAVVVLSGPHRGLYGKVEGLDPDNVRAMVRLAVGSRVVTVSEYYLRPVSQQEFDKNTLDLRQQNGTASSRKTLWNQELYIQQDNSERKRKHLPDRQDGPAAKSEKAAPRSQHWLHRDLRVRFVDNMYKGGQYYNTKMIIEDVLSPDTCVCRTDEGRVLEGLREDMLETLVPKAEGDRVMVVLGPQTGRVGHLLSRDRARSRALVQLPRENQVVELHYDAICQYMGPSDTDDD
partner: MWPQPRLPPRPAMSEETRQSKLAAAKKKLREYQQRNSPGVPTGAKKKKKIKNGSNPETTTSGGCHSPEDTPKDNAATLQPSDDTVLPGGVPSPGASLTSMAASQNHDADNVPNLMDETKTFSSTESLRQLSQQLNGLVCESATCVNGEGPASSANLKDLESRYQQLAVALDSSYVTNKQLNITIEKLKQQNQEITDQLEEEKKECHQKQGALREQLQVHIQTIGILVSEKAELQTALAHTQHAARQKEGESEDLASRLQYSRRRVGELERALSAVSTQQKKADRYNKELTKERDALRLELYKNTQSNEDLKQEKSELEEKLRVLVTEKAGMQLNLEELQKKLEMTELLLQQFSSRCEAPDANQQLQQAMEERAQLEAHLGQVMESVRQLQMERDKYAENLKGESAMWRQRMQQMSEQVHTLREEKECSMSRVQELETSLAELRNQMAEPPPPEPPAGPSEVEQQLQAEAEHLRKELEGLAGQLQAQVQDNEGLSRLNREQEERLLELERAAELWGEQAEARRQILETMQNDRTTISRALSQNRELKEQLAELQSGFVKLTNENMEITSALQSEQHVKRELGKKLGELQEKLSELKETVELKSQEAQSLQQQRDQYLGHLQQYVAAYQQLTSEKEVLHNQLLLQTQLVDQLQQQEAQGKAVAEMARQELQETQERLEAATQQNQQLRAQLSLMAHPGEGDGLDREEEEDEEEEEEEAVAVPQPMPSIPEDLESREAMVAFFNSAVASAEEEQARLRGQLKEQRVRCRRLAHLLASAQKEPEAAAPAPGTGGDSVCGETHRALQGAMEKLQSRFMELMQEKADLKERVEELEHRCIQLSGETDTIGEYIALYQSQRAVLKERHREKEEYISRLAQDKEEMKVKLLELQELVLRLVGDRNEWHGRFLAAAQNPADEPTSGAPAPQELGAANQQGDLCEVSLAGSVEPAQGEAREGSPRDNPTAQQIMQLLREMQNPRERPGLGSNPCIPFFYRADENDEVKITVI
B5: Transmembrane protein 79 (Homo sapiens), Q9BSE2 (parent)
chain: MTEQETLALLEVKRSDSPEKSSPQALVPNGRQPEGEGGAESPGAESLRVGSSAGSPTAIEGAEDGLDSTVSEAATLPWGTGPQPSAPFPDPPGWRDIEPEPPESEPLTKLEELPEDDANLLPEKAARAFVPIDLQCIERQPQEDLIVRCEAGEGECRTFMPPRVTHPDPTERKWAEAVVRPPGCSCGGCGSCGDREWLRAVASVGAALILFPCLLYGAYAFLPFDVPRLPTMSSRLIYTLRCGVFATFPIVLGILVYGLSLLCFSALRPFGEPRREVEIHRRYVAQSVQLFILYFFNLAVLSTYLPQDTLKLLPLLTGLFAVSRLIYWLTFAVGRSFRGFGYGLTFLPLLSMLMWNLYYMFVVEPERMLTATESRLDYPDHARSASDYRPRPWG
partner: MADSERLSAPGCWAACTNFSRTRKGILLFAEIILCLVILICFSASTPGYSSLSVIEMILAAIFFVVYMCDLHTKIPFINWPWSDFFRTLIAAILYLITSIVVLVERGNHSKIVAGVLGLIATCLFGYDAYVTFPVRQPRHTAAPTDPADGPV
B6: E3 ubiquitin-protein ligase CCNB1IP1 (Homo sapiens), Q9NPC3 (parent)
chain: MSLCEDMLLCNYRKCRIKLSGYAWVTACSHIFCDQHGSGEFSRSPAICPACNSTLSGKLDIVRTELSPSEEYKAMVLAGLRPEIVLDISSRALAFWTYQVHQERLYQEYNFSKAEGHLKQMEKIYTQQIQSKDVELTSMKGEVTSMKKVLEEYKKKFSDISEKLMERNRQYQKLQGLYDSLRLRNITIANHEGTLEPSMIAQSGVLGFPLGNNSKFPLDNTPVRNRGDGDGDFQFRPFFAGSPTAPEPSNSFFSFVSPSRELEQQQVSSRAFKVKRI
partner: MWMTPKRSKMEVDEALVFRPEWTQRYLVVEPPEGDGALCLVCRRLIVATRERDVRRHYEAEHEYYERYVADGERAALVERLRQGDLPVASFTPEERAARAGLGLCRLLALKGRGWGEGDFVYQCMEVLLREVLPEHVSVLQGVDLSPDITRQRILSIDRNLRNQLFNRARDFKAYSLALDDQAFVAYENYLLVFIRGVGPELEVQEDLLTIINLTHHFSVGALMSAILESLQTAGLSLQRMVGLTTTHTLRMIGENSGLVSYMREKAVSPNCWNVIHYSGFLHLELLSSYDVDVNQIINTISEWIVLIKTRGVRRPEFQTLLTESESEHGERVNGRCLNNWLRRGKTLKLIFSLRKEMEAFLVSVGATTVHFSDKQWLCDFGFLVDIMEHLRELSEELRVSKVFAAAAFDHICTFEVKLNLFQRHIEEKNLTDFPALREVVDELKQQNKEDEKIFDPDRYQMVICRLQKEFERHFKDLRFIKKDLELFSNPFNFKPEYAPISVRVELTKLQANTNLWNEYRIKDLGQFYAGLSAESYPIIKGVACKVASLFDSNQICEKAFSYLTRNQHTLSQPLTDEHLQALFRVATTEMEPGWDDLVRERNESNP

Variants of: B1
Conditions: with gnl3l_human GNL3L

effect of a mutation on the interaction | Variant
disrupting interaction strength | L12H

Variants of: B2
Conditions: with RAB3IL1, Q8TBN0

effect of a mutation on the interaction | Variant
with no effect | A89V

Variants of: B3
Conditions: with ttc23_human TTC23, Q5W5X9

effect of a mutation on the interaction | Variant
disrupting interaction strength | L12H

Variants of: B4
Conditions: with goga2_human GOLGA2, Q08379

effect of a mutation on the interaction | Variant
with no effect | A129T
with no effect | V393A

Variants of: B5
Conditions: with plp2_human PLP2, Q04941

effect of a mutation on the interaction | Variant
with no effect | D144G
with no effect | S104T
with no effect | V147M

Variants of: B6
Conditions: with epmip_human EPM2AIP1, Q7L775

effect of a mutation on the interaction | Variant
with no effect | F41L
disrupting interaction strength | R104H
with no effect | Y106H
